According to the RNAGym collection of RNA variant scans (doi:10.7554/elife.80360):

B1: Hairpin Ribozyme (parent)
chain: GUCCUCUUUCACGUGCGCGUGAAAGAGAGAAGUGAACCAGAGAAACACACGUUGUGGUAUAUUACCUGGUA

Variants of: B1
Experiment: self-cleavage, relative activity (ratio to wild type); higher = more cleavage; co-transcriptional

| Variant | self-cleavage |
| --- | --- |
| C18A C66A | 0.258 |
| C18A C66U | 0.594 |
| C18A C66G | 0.113 |
| G17A U60A | 1.02 |
| C18A C50A | 0.314 |
| C18A C50U | 0.428 |
| C16U A71U | 0.859 |
| G17C A47G | 0.0817 |
| G17C A47U | 0.222 |
| G17C A47C | 0.187 |
| C16G G51C | 0.564 |
| C16G G51U | 0.803 |
| G17U G51C | 1.17 |
| G17U G51A | 0.946 |
| G17U G32U | 0.121 |
| G17U G32C | 0.137 |
| C16U A22C | 0.899 |
| G17C U70C | 0.866 |
| G17C U70G | 0.807 |
| G17C U70A | 0.862 |
| G17U G25U | 0.637 |
| G17U U60A | 0.738 |
| C18A A49G | 0.54 |
| C18A A49U | 0.264 |

| Variant | self-cleavage |
| --- | --- |
| G17C A45C | 0.0898 |
| G17A A59C | 0.196 |
| G17A A59U | 0.116 |
| G17U A23U | 0.811 |
| C16U A36C | 0.789 |
| C16U A36U | 0.804 |
| C16U A43C | 0.174 |
| G17C U58C | 0.825 |
| G17C A36G | 0.48 |
| G17C A36C | 0.532 |
| G17C A41G | 0.591 |
| G17A G21C | 0.834 |
| G17C C48G | 0.165 |
| G17U U53C | 0.828 |
| G17C C65A | 0.748 |
| C16G G69C | 0.197 |
| C16U U58C | 1.1 |
| C16U U58A | 0.731 |
| G17A A45C | 0.0797 |
| C18A G34A | 1.33 |
| G17A A43C | 0.0401 |
| G17A A41U | 1.38 |
| G17A A41C | 1.38 |
| G17U A47G | 0.15 |

| Variant | self-cleavage |
| --- | --- |
| G17A U20G | 0.492 |
| G17A U20A | 0.759 |
| C16U G21A | 0.843 |
| C16G U53G | 0.713 |
| C18A C48A | 0.14 |
| C16U A23G | 1 |
| C16U G27U | 0.198 |
| C16U A61G | 0.148 |
| G17C A59G | 0.171 |
| G17C A59C | 0.162 |
| G17U G42A | 0.152 |
| G17U G42U | 0.343 |
| G17A | 1.01 |
| G17U | 0.961 |
| G17C | 0.751 |
| G17A A35U | 0.778 |
| G17A C38G | 0.198 |
| G17A U67C | 0.163 |
| C18G A41G | 0.555 |
| C18G A41U | 0.906 |
| C16U U33A | 0.0953 |
| C16U U33C | 0.27 |
| G17U G40U | 0.181 |
| C18G A64C | 0.158 |

| Variant | self-cleavage |
| --- | --- |
| C18G A64U | 0.18 |
| C18G A64G | 0.463 |
| G17U A41U | 1.51 |
| G17C U33G | 0.121 |
| G17C U33C | 0.237 |
| G17C U33A | 0.149 |
| C18G A35U | 0.544 |
| C18A U70C | 0.952 |
| G17C A22C | 0.75 |
| G17C C37G | 0.362 |
| G17C U63A | 0.193 |
| G17U U33G | 0.186 |
| G17U U33C | 0.0633 |
| G17C U53A | 0.936 |
| G17C U53C | 0.826 |
| C16U A30U | 0.2 |
| G17A G56C | 0.185 |
| G17A G56U | 0.137 |
| G17A G56A | 0.142 |
| C18G A36U | 0.728 |
| C18A A59U | 0.242 |
| C18A A59G | 0.272 |
| C16U U52A | 1.01 |
| C16U U52C | 0.7 |

| Variant | self-cleavage |
| --- | --- |
| C16G U20G | 0.661 |
| C16G U20A | 1.02 |
| C18A U33C | 0.132 |
| C18A U33A | 0.115 |
| C18A U33G | 0.15 |
| G17U C66A | 0.233 |
| G17U C66U | 0.537 |
| C18G C65G | 0.212 |
| G17C U20C | 0.585 |
| G17C A30C | 0.099 |
| C16U C66A | 0.194 |
| G17U A35U | 0.557 |
| G17U G19C | 0.846 |
| G17U G21U | 0.53 |
| C16G U60G | 0.511 |
| G17A U62A | 0.159 |
| C16U G57C | 0.113 |
| C16U A41G | 0.809 |
| C16U A41C | 1.4 |
| C18A C37U | 0.64 |
| G17A G51C | 0.656 |
| C16G G42A | 0.251 |
| C16G G42U | 0.247 |
| G17C A39G | 0.217 |

| Variant | self-cleavage |
| --- | --- |
| G17U A64G | 0.624 |
| G17A G57C | 0.146 |
| C16G G40A | 0.198 |
| G17U U67A | 0.249 |
| G17U U67G | 0.278 |
| C16U U67G | 0.367 |
| C16U U67C | 0.283 |
| C16U G29A | 0.146 |
| C16U G51U | 1.03 |
| C16U G51C | 1.08 |
| C18G A22C | 0.79 |
| C18G A22G | 0.804 |
| G17C C38U | 0.481 |
| G17C C38G | 0.245 |
| G17U G68U | 0.207 |
| G17U G68C | 0.162 |
| C18A A43G | 0.085 |
| C18A U53A | 1.02 |
| C18A U53G | 0.891 |
| C16U G32A | 0.216 |
| G17U C46A | 0.152 |
| G17U C46G | 0.192 |
| C18G C50A | 0.245 |
| C18G C50G | 0.176 |

| Variant | self-cleavage |
| --- | --- |
| C18A A30C | 0.166 |
| G17U U55C | 0.301 |
| G17C G29U | 0.134 |
| C16G U58A | 0.488 |
| C18A U55C | 0.3 |
| G17C A71U | 0.639 |
| G17A U55C | 0.354 |
| G17A U55A | 0.0892 |
| C16G G25A | 0.612 |
| C18A A44G | 0.199 |
| C18A A44U | 0.105 |
| C18G A45C | 0.152 |
| C18A G25A | 0.681 |
| C16U C65G | 0.26 |
| C16U C65U | 0.443 |
| C18G A49C | 0.12 |
| C18G A49U | 0.196 |
| C16U U55A | 0.357 |
| C16U U55G | 0.219 |
| C18A A23U | 0.923 |
| C18A A23C | 0.863 |
| G17A C18U | 1.12 |
| G17C A26C | 0.655 |
